Measurements from patent publication US20130210034A1, “COMPLEX PHOSPHOPROTEIN ACTIVATION PROFILES” (BECKMAN COULTER, INC., priority 2005, published 2013).
“And” between values parts separate entries of the source, which are not always exact repeats. Identical values can stand only once.

How the values were obtained:
Assay type in all cases: cell-based, human
pSTAT3 [1] = test: Cytokine-stimulated phosphorylation in immunophenotypically defined cell populations from healthy donor BM (flow cytometry); details: for pSTAT3 Percent (%) Responding Cells, Mean / pSTAT3 S/N ratio: healthy donor BM, mean ± SD
Method: (§1) Bone marrow (BM) samples were collected in 7.5 mL Iscove's modified Dulbecco's medium (IMDM) supplemented with 100U penicillin, 0.01 mg/mL streptomycin, and 70 μg/mL heparin sodium salt from 10 patients undergoing hip replacement surgery, who were otherwise healthy. These patients were from a pool of surgery patients, age 49 to 77, and represented […] patients. […] These BM samples were rinsed twice with IMDM to release cells, filtered using a 100 μm Nylon cell strainer to remove marrow particles, and centrifuged for at RT fro 7 minutes at 200 g. The cell pellet was washed twice with sterile IMDM to remove traces of fat and re-suspended in IMDM to a concentration of 3×10^7 cells/mL.
(§2) To assess the signal transduction response after growth factor simulation, a series comprising two sets of tubes including about 3×10^6 cells/100 μL were incubated at 37° C. for 30 minutes. After this pre-incubation period, tubes with then processes with either a stimulant or inhibitor. […] To examine the effects of protein phosphorylation inhibition, tubes were incubated with an inhibitor cocktail comprising 100 μM/100 μL UO126, 1 μM/100 μL LY294002, and 1 μM/100 μL rapamycin. One unstimulated tube receiving no stimulant or inhibitor was processed to assess basal levels of phospho-protein expression. After stimulation the cells were immediately fixed in 10% formaldehyde solution at 37° C. Pre-labeling with CD13, CD16 and CD64 antibodies was carried out 20 minutes prior to formaldehyde fixation. After fixation, one set of tubes was permeabilized without methanol for pAKT, pERK and pS6 staining and the other for 80% methanol permeabilized for pSTAT3 and pSTAT5 staining. After permeablization, the cells were washed in PBS with 2% BSA and blocked by re-suspended in 75 μL of PBS comprising 25% heat inactivated normal mouse serum, 25% normal rabbit serum. To stain cells with fluorescent conjugated monoclonal antibodies, samples were incubated on ice for 45 minutes in 100 μL of an antibody staining solution including either: 1) CD15-Pacific Orange, CD34-Phycoerythrin-Texas Red, CD117-Phycoerythrin-Cyanin 5.5, CD45-Allophycocyanin-Alexa Fluor 750 (or CD45-Pacific Orange, in which case CD15-Pacific Orange was omitted), pS6-Pacific Blue, pERK-Alexa Fluor 488 and pAKT-Alexa Fluor 647 or 2) CD15-Pacific Orange, CD34-Phycoerythrin-Texas Red, CD117-Phycoerythrin-Cyanin 5.5, CD45-Allophycocyanin-Alexa Fluor 750 or CD45-Pacific Blue, pSTAT3-Alexa Fluor 488 and pSTAT5-Phycoerythrin. The stained cells were washed twice with ice cold PBS containing 2% BSA and centrifuged at 800 g for 6 minutes at 4° C. The supernatant was discarded and cells re-suspended in 250 μL of chilled wash buffer for data acquisition. Stained cells were examined using either GALIOS flow cytometer (Beckman Coulter) or CYAN ADP (Beckman Coulter) equipped with 488 nm, 405 nm and 635 nm lasers to detect the degree of fluorescence. Data were analyzed using FCS Express (De Novo Software, CA) analysis software.
(§3) Specific phosphoprotein expression of pERK, pS6, pAKT, pSTAT5, and pSTAT3 was examined in seven discrete phenotypically defined populations based on 7-color immunophenotyping (FIG. 1). The percent of responding (phosphorprotein positive) cells for each of these populations was determined from individual single parameter histograms based on a fixed integration region set on the inhibitor treated control at about 3% positives.

pS6 = test: as above; details: healthy donor BM, mean ± SD
Method: as §1, §2, §3

pERK = test: as above; details: healthy donor BM, mean ± SD
Method: as §1, §2, §3

pSTAT5 [2] = test: as above; details: for pSTAT5 Percent (%) Responding Cells, Mean / pSTAT5 S/N ratio: healthy donor BM, mean ± SD
Method: as §1, §2, §3

pAKT = test: as above; details: healthy donor BM, mean ± SD
Method: as §1, §2, §3

lymphocytes = test: Phosphoprotein modulation in lymphocytes of normal BM (Example 1, internal negative control); details: lymphocytes of normal BM (Examples 1-2)
Method: To assess the signal transduction response after growth factor simulation, a series comprising two sets of tubes including about 3×10^6 cells/100 μL were incubated at 37° C. for 30 minutes. After this pre-incubation period, tubes with then processes with either a stimulant or inhibitor. […] To examine the effects of protein phosphorylation inhibition, tubes were incubated with an inhibitor cocktail comprising 100 μM/100 μL UO126, 1 μM/100 μL LY294002, and 1 μM/100 μL rapamycin. One unstimulated tube receiving no stimulant or inhibitor was processed to assess basal levels of phospho-protein expression. After stimulation the cells were immediately fixed in 10% formaldehyde solution at 37° C. […] Stained cells were examined using either GALIOS flow cytometer (Beckman Coulter) or CYAN ADP (Beckman Coulter) equipped with 488 nm, 405 nm and 635 nm lasers to detect the degree of fluorescence. Data were analyzed using FCS Express (De Novo Software, CA) analysis software.
The tables include the mean and the standard deviation of the percent responding cell population as well as the signal/noise (S/N) ratio for the 5 different phosphoproteins in response to the above-mentioned stimuli in each of these populations. […] Lymphocytes thus served as a de facto internal negative control and their median fluorescence intensity (MFI) was used for normalization of the phosphoprotein measurements.

pSTAT3 [3] = test: Cytokine-stimulated phosphorylation in AML cell populations (BM or PB of AML patients); details: patient AML3 (Example 3)
Method: as §2, §3
(§4) Using normal BM signaling profiles of Example 1 as comparison, analysis of 14 AML samples was carried out to identify differences in signaling responses. White blood cells from BM or peripheral blood (PB) samples were obtained from 14 diagnosed AML patients undergoing routine clinical flow cytometry analysis using IRB approved protocols. The AML patients included newly diagnosed AML, AMLs arising in a background of MDS, therapy related AMLs and previously diagnosed AML post therapy. The median age of the patients at diagnosis was 51 years (range: 29-75 years) and represented 5 female and 9 male patients. The median white blood cell was 6.4 million/mL (range: 0.9-106 M/mL) and the BM morphologic blast count was an average of 46% (range: 0%-90%).
(§5) Experiments performed to assess the signal transduction response after growth factor simulation were performed as described for Example 1.

pSTAT5 [4] = test: as above; details: patient AML3 (Example 3)
Method: as §2, §3, §4, §5

B1: Granulocyte Colony-Stimulating Factor (protein, UniProt P09919 31-207, looked up)
Granulocyte …: TPLGPASSLPQSFLLKCLEQVRKIQGDGAALQEKLVSECATYKLCHPEELVLLGHSLGIPWAPLSSCPSQALQLAGCLSQLHSGLFLYQGLLQALEGISPELGPTLDTLQLDVADFATTIWQQMEELGMAPALQPTQGAMPAFASAFQRRAGGVLVASHLQSFLEVSYRVLRHLAQP
notes: colony-stimulating cytokine
pSTAT3 Percent (%) Responding Cells, Mean (pSTAT3 [1]; CD34^+ (CD34^+/CD117^+ cells)): 77.8 ± 19.1% | pSTAT3 S/N ratio (pSTAT3 [1]; CD34^+ (CD34^+/CD117^+ cells)): 9.8 ± 3.0 | pSTAT3 Percent (%) Responding Cells, Mean (pSTAT3 [1]; CD117^+ (CD34^−/CD117^+ cells)): 46.2 ± 26.8% | pSTAT3 S/N ratio (pSTAT3 [1]; CD117^+ (CD34^−/CD117^+ cells)): 9.9 ± 4.6 | pSTAT3 Percent (%) Responding Cells, Mean (pSTAT3 [1]; G1, immature myeloid cells): 91.2 ± 20.4% | pSTAT3 S/N ratio (pSTAT3 [1]; G1, immature myeloid cells): 13.3 ± 4.8 | pSTAT3 Percent (%) Responding Cells, Mean (pSTAT3 [1]; G2, intermediate myeloid cells): 91.3 ± 19.3% | pSTAT3 S/N ratio (pSTAT3 [1]; G2, intermediate myeloid cells): 13.3 ± 5.1 | pSTAT3 Percent (%) Responding Cells, Mean (pSTAT3 [1]; G3, mature myeloid cells): 89.2 ± 24.9% | pSTAT3 S/N ratio (pSTAT3 [1]; G3, mature myeloid cells): 14.0 ± 5.5 | pSTAT3 Percent (%) Responding Cells, Mean (pSTAT3 [1]; Mono, monocytes): 27.8 ± 31.8% | pSTAT3 S/N ratio (pSTAT3 [1]; Mono, monocytes): 6.1 ± 2.7 | pSTAT3, Normal Sample (pSTAT3 [1]; Table 7 comparison value, matches percent responding CD34^+ cells of Table 5): 77.8 | pS6 Percent (%) Responding Cells, Mean (pS6; CD34^+ (CD34^+/CD117^+ cells)): 52% and 52.0 ± 34.2% | pS6 S/N ratio (pS6; CD34^+ (CD34^+/CD117^+ cells)): 30.7 ± 25.2 | pS6 Percent (%) Responding Cells, Mean (pS6; CD117^+ (CD34^−/CD117^+ cells)): 41.5 ± 26.5% | pS6 S/N ratio (pS6; CD117^+ (CD34^−/CD117^+ cells)): 12.9 ± 10.1 | pS6 Percent (%) Responding Cells, Mean (pS6; G1, immature myeloid cells): 2.7 ± 1.9% | pS6 S/N ratio (pS6; G1, immature myeloid cells): 4.0 ± 2.3 | pS6 Percent (%) Responding Cells, Mean (pS6; G2, intermediate myeloid cells): 2.9 ± 2.3% | pS6 S/N ratio (pS6; G2, intermediate myeloid cells): 3.7 ± 2.1 | pS6 Percent (%) Responding Cells, Mean (pS6; G3, mature myeloid cells): 4.2 ± 3.0% | pS6 S/N ratio (pS6; G3, mature myeloid cells): 4.0 ± 2.4 | pS6 Percent (%) Responding Cells, Mean (pS6; Mono, monocytes): 42.2% and 42.2 ± 30.2% | pS6 S/N ratio (pS6; Mono, monocytes): 17.2 ± 16.8 | pERK Percent (%) Responding Cells, Mean (pERK; CD34^+ (CD34^+/CD117^+ cells)): 47.1% and 47.1 ± 12.6% | pERK S/N ratio (pERK; CD34^+ (CD34^+/CD117^+ cells)): 10.2 and 10.2 ± 2.7 | pERK Percent (%) Responding Cells, Mean (pERK; CD117^+ (CD34^−/CD117^+ cells)): 39.2 ± 13.9% | pERK S/N ratio (pERK; CD117^+ (CD34^−/CD117^+ cells)): 6.8 ± 2.5 | pERK Percent (%) Responding Cells, Mean (pERK; G1, immature myeloid cells): 22.9% and 22.9 ± 24.1% | pERK S/N ratio (pERK; G1, immature myeloid cells): 4.2 ± 1.6 | pERK Percent (%) Responding Cells, Mean (pERK; G2, intermediate myeloid cells): 55.2 ± 33.1% | pERK S/N ratio (pERK; G2, intermediate myeloid cells): 5.8 ± 2.4 | pERK Percent (%) Responding Cells, Mean (pERK; G3, mature myeloid cells): 46.0% and 46.0 ± 30.3% | pERK S/N ratio (pERK; G3, mature myeloid cells): 6.2 ± 2.2 | pERK Percent (%) Responding Cells, Mean (pERK; Mono, monocytes): 12.7 ± 8.8% | pERK S/N ratio (pERK; Mono, monocytes): 3.2 ± 1.6 | pSTAT5 Percent (%) Responding Cells, Mean (pSTAT5 [2]; CD34^+ (CD34^+/CD117^+ cells)): 82.6 ± 14.0% | pSTAT5 S/N ratio (pSTAT5 [2]; CD34^+ (CD34^+/CD117^+ cells)): 25.2 and 25.2 ± 13.3 | pSTAT5 Percent (%) Responding Cells, Mean (pSTAT5 [2]; CD117^+ (CD34^−/CD117^+ cells)): 49.8 ± 25.2% | pSTAT5 S/N ratio (pSTAT5 [2]; CD117^+ (CD34^−/CD117^+ cells)): 17.0 ± 11.9 | pSTAT5 Percent (%) Responding Cells, Mean (pSTAT5 [2]; G1, immature myeloid cells): 70.9 ± 26.5% | pSTAT5 S/N ratio (pSTAT5 [2]; G1, immature myeloid cells): 8.7 and 8.7 ± 1.9 | pSTAT5 Percent (%) Responding Cells, Mean (pSTAT5 [2]; G2, intermediate myeloid cells): 71.6 ± 22.0% | pSTAT5 S/N ratio (pSTAT5 [2]; G2, intermediate myeloid cells): 9.7 ± 2.3 | pSTAT5 Percent (%) Responding Cells, Mean (pSTAT5 [2]; G3, mature myeloid cells): 71.4 ± 17.7% | pSTAT5 S/N ratio (pSTAT5 [2]; G3, mature myeloid cells): 11.7 and 11.7 ± 3.0 | pSTAT5 Percent (%) Responding Cells, Mean (pSTAT5 [2]; Mono, monocytes): 29.5 ± 19.9% | pSTAT5 S/N ratio (pSTAT5 [2]; Mono, monocytes): 5.9 ± 2.0 | pSTAT5, Normal Sample (pSTAT5 [2]; Table 7 comparison value, matches percent responding CD34^+ cells of Tables 1-5): 82.6 | pAKT Percent (%) Responding Cells, Mean (pAKT; CD34^+ (CD34^+/CD117^+ cells)): 22.5% and 22.5 ± 18.4% | pAKT S/N ratio (pAKT; CD34^+ (CD34^+/CD117^+ cells)): 6.4 ± 5.9 | pAKT Percent (%) Responding Cells, Mean (pAKT; CD117^+ (CD34^−/CD117^+ cells)): 16.6 ± 19.8% | pAKT S/N ratio (pAKT; CD117^+ (CD34^−/CD117^+ cells)): 2.7 ± 1.8 | pAKT Percent (%) Responding Cells, Mean (pAKT; G1, immature myeloid cells): 5.3 ± 10.9% | pAKT S/N ratio (pAKT; G1, immature myeloid cells): 2.5 ± 1.5 | pAKT Percent (%) Responding Cells, Mean (pAKT; G2, intermediate myeloid cells): 4.1 ± 3.3% | pAKT S/N ratio (pAKT; G2, intermediate myeloid cells): 2.5 ± 1.2 | pAKT Percent (%) Responding Cells, Mean (pAKT; G3, mature myeloid cells): 4.4 ± 3.1% | pAKT S/N ratio (pAKT; G3, mature myeloid cells): 2.8 ± 1.4 | pAKT Percent (%) Responding Cells, Mean (pAKT; Mono, monocytes): 4.1 ± 4.9% | pAKT S/N ratio (pAKT; Mono, monocytes): 2.6 ± 1.2 | Modulation of phosphoprotein epitopes (pERK, pS6, pAKT, pSTAT3 or pSTAT5) in lymphocytes (lymphocytes): no response | pSTAT3, AML Sample (pSTAT3 [3]): 7.0 | pSTAT5, AML Sample (pSTAT5 [4]): 8.3
